Molecular target: eukaryotic elongation factor 2 (eEF-2) from yeast (yeast (commercial yeast cake), UniProt P32324 1-842)
Test: ITC

Chain of eukaryotic elongation factor 2 (eEF-2) from yeast (P32324 whole entry): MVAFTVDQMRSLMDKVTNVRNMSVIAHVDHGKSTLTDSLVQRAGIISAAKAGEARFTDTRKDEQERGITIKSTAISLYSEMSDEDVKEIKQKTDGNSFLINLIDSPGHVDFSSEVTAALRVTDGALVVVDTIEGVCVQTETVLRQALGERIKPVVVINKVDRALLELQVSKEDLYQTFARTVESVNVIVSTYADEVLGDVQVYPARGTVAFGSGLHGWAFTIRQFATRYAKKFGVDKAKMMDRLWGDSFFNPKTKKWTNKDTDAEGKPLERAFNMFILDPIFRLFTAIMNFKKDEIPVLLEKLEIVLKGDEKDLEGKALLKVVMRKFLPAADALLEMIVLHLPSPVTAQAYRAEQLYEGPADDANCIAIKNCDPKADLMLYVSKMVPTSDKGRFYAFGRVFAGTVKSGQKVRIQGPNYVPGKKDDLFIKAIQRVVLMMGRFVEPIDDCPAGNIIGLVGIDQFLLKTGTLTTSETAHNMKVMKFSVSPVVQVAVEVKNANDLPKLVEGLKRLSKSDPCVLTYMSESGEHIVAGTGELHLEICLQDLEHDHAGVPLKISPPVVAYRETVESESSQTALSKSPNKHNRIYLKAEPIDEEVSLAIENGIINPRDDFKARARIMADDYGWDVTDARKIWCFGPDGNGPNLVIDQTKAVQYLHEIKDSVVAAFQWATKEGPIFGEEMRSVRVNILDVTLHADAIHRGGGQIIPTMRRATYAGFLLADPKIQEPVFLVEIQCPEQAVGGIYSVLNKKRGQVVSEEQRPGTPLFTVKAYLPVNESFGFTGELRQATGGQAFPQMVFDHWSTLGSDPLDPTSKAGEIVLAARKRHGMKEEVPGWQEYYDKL

Row | Kd [µM] | Binder
1 | 4.2 to 8.9 | eEF-2K_(562–725), C-terminal fragment of human eukaryotic elongation factor 2 kinase (residues G562-E725) (domain or fragment) SHMGELEAIVGLGLMYSQLPHHILADVSLKETEENKTKGFDYLLKAAEAGDRQSMILVARAFDSGQNLSPDRCQDWLEALHWYNTALEMTDCDEGGEYDGMQDEPRYMMLAREAEMLFTGGYGLEKDPQRSGDLYTQAAEAAMEAMKGRLANQYYQKAEEAWAQMEE
2 | 15.4 to 19 | eEF-2K_(592–725), C-terminal fragment of human eukaryotic elongation factor 2 kinase (residues E592-E725) (domain or fragment, UniProt O00418 592-725, looked up) ENKTKGFDYLLKAAEAGDRQSMILVARAFDSGQNLSPDRCQDWLEALHWYNTALEMTDCDEGGEYDGMQDEPRYMMLAREAEMLFTGGYGLEKDPQRSGDLYTQAAEAAMEAMKGRLANQYYQKAEEAWAQMEE

From article PMC6599559 (Journal of molecular biology, 2019)
